Results on one sequence are retold here after patent publication US8242083B2, “Kinase substrates” (PerkinElmer Health Sciences, Inc., priority 2008, dated 2012).

What all share (type): biochemical
One assay addresses BLK (Homo sapiens, UniProt P51451). Kind of assay: TR-FRET kinase assay, BLK. Conditions: Kinase Concentration 0.5 nM; 50 nM ULight-labeled substrate, 200 micromolar ATP, 2 hours. On the procedure: (§1) TR-FRET kinase assays are performed under standardized conditions: various individual kinases are incubated with 50 nM of kinase substrate BRB1 labeled with the TR-FRET acceptor dye ULight (PerkinElmer) and 200 micromolar ATP in 10 μL of kinase assay buffer (50 mM HEPES pH7.5, 10 mM MgCl2, 3 mM MnCl2, 1 mM EGTA, 2 mM DTT and 0.01% Tween-20) for 2 hours at room temperature. Reactions are stopped with EDTA, and anti-phospho-tyrosine antibodies (clone PT66) labeled with the TR-FRET europium chelate donor dye are added to a final concentration of 2 nM in a final volume of 20 μL. The TR-FRET signal emitted at 665 nm is read one hour after the addition of antibodies using a TR-FRET plate reader such as the Envision® Multilabel Plate reader (PerkinElmer). The emitted signal at 665 nm is proportional to the extent of peptide phosphorylation, Control reactions indicative of background are performed excluding ATP from the reaction.
(§2) Assay conditions are identical to those used described for FIG. 1.

In the next assay the target is FGFR2 (Homo sapiens, UniProt P21802). Briefly: TR-FRET kinase assay, FGFR2. Conditions: Kinase Concentration 0.25 nM; 50 nM ULight-labeled substrate, 200 micromolar ATP, 2 hours. On the procedure: as §1, §2
In a further assay the target is JAK1 (Homo sapiens, UniProt P23458). Kind of assay: TR-FRET kinase assay, JAK1. Conditions: Kinase Concentration 7 nM; 50 nM ULight-labeled substrate, 200 micromolar ATP, 2 hours. On the procedure:
as §1, §2

Another assay deals with LTK (Homo sapiens, UniProt P29376). Briefly: TR-FRET kinase assay, LTK. Conditions: Kinase Concentration 1 nM; 50 nM ULight-labeled substrate, 200 micromolar ATP, 2 hours. On the procedure: as §1, §2
The next assay has as its target T1, EphA8 (Homo sapiens, UniProt P29322).
T1 sequence (P29322 28-1005): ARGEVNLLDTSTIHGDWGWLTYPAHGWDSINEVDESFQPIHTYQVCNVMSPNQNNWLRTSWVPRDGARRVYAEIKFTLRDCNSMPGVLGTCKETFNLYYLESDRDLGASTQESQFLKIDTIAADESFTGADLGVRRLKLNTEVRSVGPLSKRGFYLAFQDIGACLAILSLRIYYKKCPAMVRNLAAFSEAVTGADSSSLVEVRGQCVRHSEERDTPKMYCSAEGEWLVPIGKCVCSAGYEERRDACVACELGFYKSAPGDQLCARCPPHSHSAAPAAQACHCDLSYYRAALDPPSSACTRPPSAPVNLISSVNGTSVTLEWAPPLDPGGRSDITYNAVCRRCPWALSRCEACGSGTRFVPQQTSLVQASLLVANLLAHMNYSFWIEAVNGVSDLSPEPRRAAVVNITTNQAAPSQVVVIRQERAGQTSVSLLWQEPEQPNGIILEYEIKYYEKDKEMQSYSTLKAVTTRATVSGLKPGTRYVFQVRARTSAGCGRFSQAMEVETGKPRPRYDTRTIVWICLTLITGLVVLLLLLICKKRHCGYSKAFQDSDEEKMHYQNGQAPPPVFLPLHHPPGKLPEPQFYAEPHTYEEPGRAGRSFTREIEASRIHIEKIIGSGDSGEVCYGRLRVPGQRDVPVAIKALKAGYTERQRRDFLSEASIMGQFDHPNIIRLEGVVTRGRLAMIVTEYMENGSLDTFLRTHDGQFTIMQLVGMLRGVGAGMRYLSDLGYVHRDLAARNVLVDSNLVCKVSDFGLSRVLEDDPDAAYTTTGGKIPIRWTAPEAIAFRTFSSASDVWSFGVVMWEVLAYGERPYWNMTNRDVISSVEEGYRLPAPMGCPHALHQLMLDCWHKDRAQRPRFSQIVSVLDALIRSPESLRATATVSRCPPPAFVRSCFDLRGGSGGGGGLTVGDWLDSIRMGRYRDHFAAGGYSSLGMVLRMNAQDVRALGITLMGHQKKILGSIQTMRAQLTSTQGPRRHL
Kind of assay: TR-FRET kinase assay, EphA8. Conditions: Kinase Concentration 0.25 nM; 50 nM ULight-labeled substrate, 200 micromolar ATP, 2 hours. On the procedure:
as §1, §2

The target of a further assay is T2, EphA1 (Homo sapiens, UniProt P21709).
T2 sequence (P21709 26-976): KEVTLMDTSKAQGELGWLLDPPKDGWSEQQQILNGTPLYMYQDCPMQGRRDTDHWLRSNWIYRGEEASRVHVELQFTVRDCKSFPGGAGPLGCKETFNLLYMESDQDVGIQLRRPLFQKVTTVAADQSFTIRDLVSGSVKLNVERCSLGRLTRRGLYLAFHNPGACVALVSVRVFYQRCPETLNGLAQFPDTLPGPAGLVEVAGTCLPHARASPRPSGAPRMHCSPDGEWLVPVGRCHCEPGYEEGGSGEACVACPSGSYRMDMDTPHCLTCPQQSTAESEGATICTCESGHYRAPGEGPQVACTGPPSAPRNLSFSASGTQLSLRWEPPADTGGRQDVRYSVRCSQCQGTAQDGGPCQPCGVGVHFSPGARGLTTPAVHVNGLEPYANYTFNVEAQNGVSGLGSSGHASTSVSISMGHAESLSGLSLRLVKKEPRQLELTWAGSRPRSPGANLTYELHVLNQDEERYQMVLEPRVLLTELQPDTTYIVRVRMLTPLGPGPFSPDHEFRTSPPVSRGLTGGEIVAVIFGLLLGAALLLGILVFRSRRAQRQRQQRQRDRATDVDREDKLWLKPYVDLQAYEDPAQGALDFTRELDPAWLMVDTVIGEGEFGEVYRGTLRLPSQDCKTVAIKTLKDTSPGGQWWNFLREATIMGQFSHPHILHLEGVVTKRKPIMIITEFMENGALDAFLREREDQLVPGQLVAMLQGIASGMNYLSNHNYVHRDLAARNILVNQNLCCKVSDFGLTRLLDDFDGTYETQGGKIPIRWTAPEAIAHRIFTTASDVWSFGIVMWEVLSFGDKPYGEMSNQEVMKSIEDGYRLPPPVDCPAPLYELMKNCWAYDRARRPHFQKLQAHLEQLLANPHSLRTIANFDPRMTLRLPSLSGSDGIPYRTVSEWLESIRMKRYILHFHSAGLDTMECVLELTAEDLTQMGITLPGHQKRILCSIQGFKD
Kind of assay: TR-FRET kinase assay, EphA1. The conditions noted are these: Kinase Concentration 0.5 nM; 50 nM ULight-labeled substrate, 200 micromolar ATP, 2 hours. On the procedure: as §1, §2

Another assay has as its target EGFR (Homo sapiens, UniProt P00533). Briefly: TR-FRET kinase assay, EGFR. Conditions: Kinase Concentration 0.5 nM; 50 nM ULight-labeled substrate, 200 micromolar ATP, 2 hours. On the procedure:
as §1, §2

Sequence of BLK (P51451 whole entry, species assumed): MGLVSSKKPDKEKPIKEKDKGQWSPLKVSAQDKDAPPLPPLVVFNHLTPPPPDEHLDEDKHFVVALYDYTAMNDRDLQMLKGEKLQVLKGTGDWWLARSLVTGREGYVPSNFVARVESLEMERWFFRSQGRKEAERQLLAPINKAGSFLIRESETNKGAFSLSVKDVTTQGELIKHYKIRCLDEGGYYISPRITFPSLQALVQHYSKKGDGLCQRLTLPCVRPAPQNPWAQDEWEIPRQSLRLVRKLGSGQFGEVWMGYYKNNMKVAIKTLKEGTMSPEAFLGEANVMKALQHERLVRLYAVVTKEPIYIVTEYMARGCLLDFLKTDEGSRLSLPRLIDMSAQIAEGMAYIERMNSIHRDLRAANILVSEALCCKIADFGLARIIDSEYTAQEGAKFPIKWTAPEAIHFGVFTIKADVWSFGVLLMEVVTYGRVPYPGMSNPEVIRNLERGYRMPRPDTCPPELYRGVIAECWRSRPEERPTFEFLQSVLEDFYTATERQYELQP
Sequence of LTK (P29376 17-864, species assumed): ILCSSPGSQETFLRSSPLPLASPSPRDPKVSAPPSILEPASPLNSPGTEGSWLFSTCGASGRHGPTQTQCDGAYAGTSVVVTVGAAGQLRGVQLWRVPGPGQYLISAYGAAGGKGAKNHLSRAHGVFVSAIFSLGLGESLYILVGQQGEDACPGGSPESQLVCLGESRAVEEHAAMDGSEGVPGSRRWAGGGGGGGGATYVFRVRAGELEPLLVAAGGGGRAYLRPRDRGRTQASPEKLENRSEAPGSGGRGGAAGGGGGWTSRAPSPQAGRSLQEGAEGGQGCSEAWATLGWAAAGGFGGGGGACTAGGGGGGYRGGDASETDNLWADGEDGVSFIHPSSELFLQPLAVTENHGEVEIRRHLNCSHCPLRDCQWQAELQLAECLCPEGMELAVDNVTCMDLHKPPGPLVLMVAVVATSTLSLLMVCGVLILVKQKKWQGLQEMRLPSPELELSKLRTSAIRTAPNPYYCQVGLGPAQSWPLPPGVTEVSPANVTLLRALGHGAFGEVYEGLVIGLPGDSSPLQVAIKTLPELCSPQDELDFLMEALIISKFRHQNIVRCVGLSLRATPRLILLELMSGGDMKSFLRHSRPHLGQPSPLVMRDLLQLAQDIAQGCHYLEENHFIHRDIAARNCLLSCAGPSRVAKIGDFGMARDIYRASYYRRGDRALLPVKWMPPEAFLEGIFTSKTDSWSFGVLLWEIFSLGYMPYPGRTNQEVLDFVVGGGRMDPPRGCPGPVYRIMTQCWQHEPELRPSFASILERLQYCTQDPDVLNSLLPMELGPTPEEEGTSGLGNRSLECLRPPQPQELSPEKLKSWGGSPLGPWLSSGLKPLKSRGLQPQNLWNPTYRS
Sequence of JAK1 (P23458 whole entry, species assumed): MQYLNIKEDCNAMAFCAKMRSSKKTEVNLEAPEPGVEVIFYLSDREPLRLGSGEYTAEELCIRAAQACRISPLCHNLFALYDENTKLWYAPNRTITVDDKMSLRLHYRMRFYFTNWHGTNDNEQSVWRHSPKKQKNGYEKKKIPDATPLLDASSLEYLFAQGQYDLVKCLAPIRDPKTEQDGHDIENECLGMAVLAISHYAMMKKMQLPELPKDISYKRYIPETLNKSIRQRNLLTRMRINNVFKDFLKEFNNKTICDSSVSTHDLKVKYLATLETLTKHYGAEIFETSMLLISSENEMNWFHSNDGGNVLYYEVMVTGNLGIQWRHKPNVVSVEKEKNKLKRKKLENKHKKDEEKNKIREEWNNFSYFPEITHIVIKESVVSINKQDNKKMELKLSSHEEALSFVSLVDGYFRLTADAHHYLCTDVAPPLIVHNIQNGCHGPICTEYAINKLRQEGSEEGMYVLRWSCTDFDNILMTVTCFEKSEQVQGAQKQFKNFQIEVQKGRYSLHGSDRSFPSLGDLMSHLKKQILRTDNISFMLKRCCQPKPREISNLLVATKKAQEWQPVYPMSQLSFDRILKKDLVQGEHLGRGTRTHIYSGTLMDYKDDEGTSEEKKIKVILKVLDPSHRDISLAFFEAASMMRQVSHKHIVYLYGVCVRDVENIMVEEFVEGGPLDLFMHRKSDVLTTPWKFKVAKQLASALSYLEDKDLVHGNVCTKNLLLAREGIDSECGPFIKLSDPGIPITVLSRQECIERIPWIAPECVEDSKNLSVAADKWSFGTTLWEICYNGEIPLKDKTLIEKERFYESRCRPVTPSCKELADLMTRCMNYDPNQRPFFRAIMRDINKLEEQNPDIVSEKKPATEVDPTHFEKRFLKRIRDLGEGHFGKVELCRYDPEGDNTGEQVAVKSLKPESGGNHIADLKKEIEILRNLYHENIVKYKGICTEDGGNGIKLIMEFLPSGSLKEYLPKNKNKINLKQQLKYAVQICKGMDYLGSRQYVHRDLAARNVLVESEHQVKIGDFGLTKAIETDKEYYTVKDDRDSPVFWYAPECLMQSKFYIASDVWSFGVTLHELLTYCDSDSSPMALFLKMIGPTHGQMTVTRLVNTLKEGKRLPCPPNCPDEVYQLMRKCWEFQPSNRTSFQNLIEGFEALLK

In the case of “C AYE AYE AYE K EYA EYA EYA K AYA EYE R (CAYEAYEAYEKEYAEYAEYAKAYAEYER; tyrosine kinase substrate peptide) [BRB1]”, the “Signal to Noise ratio with BRB1 Peptide” value in the assay with BLK is 31.0; in the assay with FGFR2 it was 27.1; with JAK1, 13.7; with LTK it was 13.7; with EphA8 it was 32.3; with EphA1, 10.8. Further, the “Signal to Noise ratio with BRB1 Peptide” value with EGFR came out at 10.0.
